Laboratory results published in PMC2903050 (Journal of molecular biology, 2010).

How the values were obtained:
[1] = target: T1, botulinum neurotoxin serotype A light chain residues 1-448 (Clostridium botulinum, BoNT/A1 …, UniProt P0DPI0); assay: flow cytometry on cells
[2] = target: T1, botulinum neurotoxin serotype A light …; assay: KinExA
Target sequence in this assay (P0DPI0 1-448): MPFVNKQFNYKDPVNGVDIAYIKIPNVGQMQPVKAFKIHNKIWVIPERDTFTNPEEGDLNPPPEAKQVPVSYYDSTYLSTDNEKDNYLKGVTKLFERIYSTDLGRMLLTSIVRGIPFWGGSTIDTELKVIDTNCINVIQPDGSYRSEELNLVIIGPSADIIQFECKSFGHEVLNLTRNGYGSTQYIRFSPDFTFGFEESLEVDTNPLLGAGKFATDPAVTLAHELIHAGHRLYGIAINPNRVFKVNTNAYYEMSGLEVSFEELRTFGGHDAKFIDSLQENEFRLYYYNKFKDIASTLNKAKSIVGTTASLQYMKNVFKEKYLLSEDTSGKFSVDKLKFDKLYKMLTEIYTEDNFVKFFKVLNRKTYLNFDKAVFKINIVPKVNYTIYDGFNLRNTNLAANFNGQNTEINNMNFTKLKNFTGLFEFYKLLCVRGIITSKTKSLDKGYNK

[3] = target: truncated BoNT/A Lc containing residues 1-425 (Clostridium botulinum, UniProt P0DPI0); assay: […]
truncated BoNT/A Lc containing residues 1-425, sequence (P0DPI0 1-425): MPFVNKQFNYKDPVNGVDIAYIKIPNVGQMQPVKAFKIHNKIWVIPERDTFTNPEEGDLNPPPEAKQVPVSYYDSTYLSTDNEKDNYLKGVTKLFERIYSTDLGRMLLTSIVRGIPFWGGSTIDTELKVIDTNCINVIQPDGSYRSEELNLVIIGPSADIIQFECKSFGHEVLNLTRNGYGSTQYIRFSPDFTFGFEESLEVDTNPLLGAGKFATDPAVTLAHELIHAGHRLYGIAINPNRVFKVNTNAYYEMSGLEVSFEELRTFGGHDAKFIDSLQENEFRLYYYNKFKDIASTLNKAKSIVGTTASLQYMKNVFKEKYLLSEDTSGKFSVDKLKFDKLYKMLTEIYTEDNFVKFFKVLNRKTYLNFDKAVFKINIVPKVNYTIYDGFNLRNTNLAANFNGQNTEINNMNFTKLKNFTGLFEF

B1: Aa1 VHH, yeast displayed (VHH)
VHH: AVQLVDSGGGTLQAGKSLRLSCAISGLAFDGGAMGSEHRLTAGAMGWFRQAPGKDREFVAAISPRTDETYYAESLEGRFSVSRDAAATMVFLQADNVRLDDTASYYCAADEDVTPRVMGVIPHADHWGQGTLVTVSS
Kd [1]: 30 pM

B2: Aa1 VHH, purified (VHH)
VHH: AVQLVDSGGGTLQAGKSLRLSCAISGLAFDGGAMGSEHRLTAGAMGWFRQAPGKDREFVAAISPRTDETYYAESLEGRFSVSRDAAATMVFLQADNVRLDDTASYYCAADEDVTPRVMGVIPHADHWGQGTLVTVSS
Kd [2]: 147 pM | koff [2]: 0.00666 s⁻¹ | kon [2]: 4.39e+07 M⁻¹ s⁻¹

B3: Aa1 VHH, for crystal growing (VHH)
VHH: AVQLVDSGGGTLQAGKSLRLSCAISGLAFDGGAMGSEHRLTAGAMGWFRQAPGKDREFVAAISPRTDETYYAESLEGRFSVSRDAAATMVFLQADNVRLDDTASYYCAADEDVTPRVMGVIPHADHWGQGTLVTVSS
stoichiometry N [3]: 1
